These results are taken from patent US20110286916A1 (published 2011).

Assay [1] has as its target T1, human full-length Notch1 with C-terminal FLAG tag, stably expressed on 293 FlpIn (TREx) cells (human, UniProt P46531 19-2555).
T1 construct: tetracycline/doxycycline-induced expression from pcDNA5/FRT/TO-HN1+FLAG; also called hN1; 293_N1
Kind of assay: FACS, phage scFv.

In assay [2] the target is T2, human full-length Notch3 with C-terminal FLAG tag, stably expressed on 293 FlpIn (TREx) cells (human, UniProt Q9UM47 40-2321).
T2 construct: whole, on cells; made by the same strategy as the Notch1 line; also called 293-N3; hN3
Kind of assay: FACS, phage scFv. Background: In flow cytometry, cells or beads pass a laser one at a time.

B1: N1wc125 (scFv, V domains shown)
VH: QVQLQQSGAEVKKPGAPLKVSCKTSGFTFTGYYIHWVRQAPGQGLEWMGRVDPYNGATNFAQKFQGRVTMTTDTSTSTTYMELMSLRSDDTAVYYCARGWELDSWGQGTLVTVSS
VL: QSVLTQPASVSGSPGQSITISCTGTSSDVGGYNYVSWYQQHPGKAPKLMIYEGSKRPSGVSNRFSGSKSGNTASLTISGLQAEDEADYYCSSYTTRSTRVFGGGTKLTVL
notes: phage scFv
As for B1, the binding result in assay [1] and in assay [2] was “binds” each time.

B2: N1wc16 (scFv, V domains shown)
VH: QVQLQQSGAEVKTPGASVKVSCKASGYTFTDNYIHWVRQAPGQGLEWMGRINVNSGATNYARKFQGRVTMTGDTSISTAYMDLSRLKSDDTAVYYCARDFRYSGVDVWGQGTMVTVSS
VL: QSVLTQPPSVSVAPGQTATLSCVGDAIERKSVHWYQQRPGQAPVLVVHDDSDRPSGIPDRISGSNSGNTATLTITRVEVGDEADYFCQVWDTSSGHDAVVFGGGTKLTVL
notes: phage scFv
For B2, the binding result in assay [1] and in assay [2] was “binds” in each case.

B3: N1wc113 (scFv, V domains shown)
VH: QMQLVQSGAEVKRPGASVNLSCKASGYSFSRYYIHWVRQAPGQGLELMGRINPGGGTTTYAQKFQGRVTLSRDTSTNTIFMELNGLTSEDTAMYYCARSNYDILAGYGPDAFDFWGQGTMVTVSS
VL: QAVLTQPSSVSGAPGQRVTISCTGSSSNIGAGNDVHWYRQFPGTAPKLLIYGNNKRPSGVSDRFSGSKSGTSASLAITGLQVEDEADYYCQSYDSSLGGSDVFGGGTKLTVL
notes: phage scFv
On to B3, for which the binding result in assay [1] and in assay [2] was “binds” in each case.

B4: hN1S3-153 (scFv, V domains shown)
VH: QVQLQESGGGLVQPGGSLSLSCATSGFTFGNYVMRWVRQAPGKGLEWVSTITEGGGDFIYYADSVKGRFAISRDNSKSTVYLHMNGLRVEDTAVYYCAKSGGDDNSNYNFEYWGQGTLVTVSS
VL: QAVLTQPSSVSGAPGQRVIISCTGTSSNTGAGYYVNWYQQLPGAAPKVLIFGNDNRPSGVPDRFSGAKSGTSASLAITGLQAEDEADYYCQSYDRSLSGWVFGGGTKLTVL
notes: phage scFv
Consider B4, for which the binding result in assay [1] and in assay [2] was “binds” throughout.

B5: N1wc24 (scFv, V domains shown)
VH: EVQLVESGPGLVKPSETLSLTCTVSGGSMTSNFWSWIRQTPGKGLEWIGYVLYTGSTNSNPSLKSRVTMSVDTSKNQVSLTLSSVTAADTAIYYCARGNGWYLPWGRGTMVTVSS
VL: QSVLTQPPSVSGAPRQRVTISCSGSSSNIENNIVNWYQQLPGEAPKLLIYYDNLLPSGVSDRFSGSKSGTSASLAISGLQSGDEADYYCAAWDDSLKAVVFGGGTKLTVL
notes: phage scFv
B5: the binding result in assay [1] and in assay [2] was “binds” each time.

B6: N1wc82 (scFv, V domains shown)
VH: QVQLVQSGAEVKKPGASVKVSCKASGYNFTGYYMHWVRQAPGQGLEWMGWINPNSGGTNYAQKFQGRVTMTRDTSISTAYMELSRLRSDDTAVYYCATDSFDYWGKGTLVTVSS
VL: QSVLTQPPSVSATPGQKVTISCSGSNSNIGNNYVSWYQQLPGTAPKLLIYDSDQRPAGIPDRFSGSKLGTSATLGITGLQTGDEADYYCATWDAGLSVLIFGGGTKLTVL
notes: phage scFv
B6: the binding result in assay [1] and in assay [2] was “binds” throughout.

B7: hN1S3-030 (scFv, V domains shown)
VH: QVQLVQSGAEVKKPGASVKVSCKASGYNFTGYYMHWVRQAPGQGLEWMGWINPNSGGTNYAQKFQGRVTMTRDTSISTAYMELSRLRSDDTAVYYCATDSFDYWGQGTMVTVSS
VL: QSVLTQPPSASGTPGQRVSISCSGSSSNIGSNYVYWYQQLPGTAPKVLVYRNNQRPSGVSDRFSGSKYGTSASLAISGLRSEDEADYYCGSWDDSLSGVVFGGGTKVTVL
notes: phage scFv
Turning to B7, the binding result in assay [1] and in assay [2] was “binds” each time.

B8: hN1S3-088 (scFv, V domains shown)
VH: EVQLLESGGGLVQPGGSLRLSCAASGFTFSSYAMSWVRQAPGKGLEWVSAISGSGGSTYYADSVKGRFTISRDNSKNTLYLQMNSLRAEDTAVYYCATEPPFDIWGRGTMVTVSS
VL: QSVLTQPPSVSGTPGQRVTISCSGSSSNIGNDVVNWYQQLPGTAPKLLIYNDYQRPSGVSDRFSGSKSGTSAYLAISGLQSEDEADYHCAVWDDSLDGWVFGGGTKLTVL
notes: phage scFv
On to B8, for which the binding result in assay [1] and in assay [2] was “binds” throughout.

B9: hN1S3-127 (scFv, V domains shown)
VH: EVQLVQSGAEVKKPGASVKVSCKASGYNFTGYYMHWVRQAPGQGLEWMGWINPNSGGTNYAQKFQGRVTMTRDTSISTAYMELSRLRSDDTAVYYCATDSFDYWGQGTLVTVSS
VL: QSVLTQPPSVSGAPGQRVTISCSGSTSNIGGNPVTWYQQFPGTAPKLLVYRDNQRPSGVADRFSGSRSGTSASLAISGLQSEDEADFYCASWDDSLGGVVFGGGTKLTVL
notes: phage scFv
As for B9, the binding result in assay [1] and in assay [2] was “binds” in each case.

B10: hN1S3-006 (scFv, V domains shown)
VH: QVQLVQSGAEVKKPGASVKVSCKASGYNFTGYYIHWVRQAPGQGLEWMGWINPNSGGTNYAQKFQGRVIMTRDTSISTAYMELSRLRSDDTAVYYCATDSFDYWGRGTLVTVSS
VL: QAVLTQPSSASGTAGQRVTISCSGSNSNIGSNTVNWYQQLPGTTPKLLIYSNNERPSGVPDRFSGSKSGTSASLAISGLQSDDEADYYCAAWDDSLNGYVFGTGTKVTVL
notes: phage scFv
As for B10, the binding result in assay [1] and in assay [2] was “binds” throughout.

B11: hN1S3-177 (scFv, V domains shown)
VH: EVQLVQSGAEVKKPGASVKVSCKASGYNFTGYYMHWVRQAPGQGLEWMGWINPNSGGANYAQKFQGRVTMTRDTSISTAYMELSRLRSDDTAVYYCATDSFDYWGRGTLVTVSS
VL: QAVLTQPSSASGTPGQRVTISCSGSSSNIGTNYVYWYQHLPGMAPKLLLYSNNQRPSGVPDRFSGSKSGPSASLAISGLRSEDEADYYCAAWDDSLSGLVFGGGTKLTVL
notes: phage scFv
As for B11, the binding result in assay [1] and in assay [2] was “binds” throughout.

B12: hN1S3-136 (scFv, V domains shown)
VH: QVQLQESGAEVKKPGASVKVSCKASGYNFTGYYMHWVRQAPGQGLEWMGWINPNSGGTNYAQKFQGRVTMTRDTSISTAYMELSRLRSDDTAVYYCATDSFDYWGRGTTVTVSS
VL: QAVLTQPSSESGTPGQRVTISCSGTTSNIGDNTVTWYQQLPGTAPKLLIYSNTQRPSGVPARFSGSKSGTSASLAISGLQSGDEADYYCAAWDDSRNGYVFGTGTKLTVL
notes: phage scFv
As for B12, the binding result in assay [1] and in assay [2] was “binds” each time.

B13: hN1S3-135 (scFv, V domains shown)
VH: EVQLVQSGAEVKKPGASVKVSCKASGYNFTGYYMHWVRQAPGQGLEWMGWINPNSGGTNYAQKFQGRVTMTRDTSISTAYMELSRLRSDDTAVYYCATDSFDYWGKGTLVTVSS
VL: LPVLTQPPSVSEAPRQRVTISCSGSSFNIGNNAVNWYQQLPGKAPKLLIYYDDLLPSGVSDRFSGSKSGTSASLAISGLQSEDEADYYCAAWDDSLNAVVFGGGTKVTVL
notes: phage scFv
For B13, the binding result in assay [1] and in assay [2] was “binds” each time.

B14: hN1S3-112 (scFv, V domains shown)
VH: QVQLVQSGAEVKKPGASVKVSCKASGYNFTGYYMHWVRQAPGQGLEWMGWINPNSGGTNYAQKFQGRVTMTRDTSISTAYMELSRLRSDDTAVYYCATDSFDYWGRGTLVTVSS
VL: LPVLTQPPSASGTPGQRVTISCSGSSSNIGNNYVYWYQQLPGTAPKLLIYRNNQRPSGVPDRFSASKSGTSASLVISGIRSEDEAEYYCGGWDDSLSGQVVFGGGTKLTVL
notes: phage scFv
Take B14: the binding result in assay [1] and in assay [2] was “binds” in each case.

B15: hN1S3-002 (scFv, V domains shown)
VH: GVQLVQSGAEVKKPGASVKVSCKASGYTFTDYYVHWVRQAPGQGPEWMGWINPNNGGTKYAQKFQGRVTMTTDTSTSTAYMELRSLRSDDTALYYCARDLLPYYGDYRADKIDDFDIWGRGTLVTVSS
VL: QSVLTQPPSASGTPGQRVTISCSGSSSNIGSNTVNWYQRLPGAAPQLLIYNNDQRPSGIPDRFSGSKSGTSGSLVISGLQSEDEADYYCASWDDSLNGRVFGGGTKLTVL
notes: phage scFv
As to B15, the binding result in assay [1] and in assay [2] was “binds” throughout.

B16: hN1S3-107 (scFv, V domains shown)
VH: EVQLVQSGPEVKKPGASVKVSCKASGYTFTDYFLNWVRQAPGQGLEWIGWINPNTGGTNYAQNFQGRVTVTRDASISTAYMELRSLTSADTAIYYCARGAYDYVWGSHRYVADAFDIWGQGTLVTVSS
VL: QSVLTQPPSASGTPGQRVTISCSGSSSNIGSNTVNWYQRLPGAAPQLLIYNNDQRPSGIPDRFSGSKSGTSGSLVISGLQSEDEADYYCASWDDSLNGRVFGGGTKLTVL
notes: phage scFv
Consider B16, for which the binding result in assay [1] and in assay [2] was “binds” in each case.

B17: hN1S3-108 (scFv, V domains shown)
VH: QVQLVQSGAEVRKPGASVKVSCKASGYTFTDYYLHWVRQAPGLGLEWMGWINPNTGGTDYGQKFQGRVTMTRDTSINTAYMELSSLRSDDTAVYYCARGAYDYVWGSHRYVADAFDIWGQGTTVTVSS
VL: DIVMTQSPSTLSASVGDRVTITCRASQGISSWLAWYQQKPGRAPKVLIYKASTLESGVPSRFSGSGSGTDFTLTISSLQPEDFATYYCQQSYSTPWTFGQGTKLEIK
notes: phage scFv
Turning to B17, the binding result in assay [1] and in assay [2] was “binds” each time.

B18: hN1S3-087 (scFv, V domains shown)
VH: QVQLVQSGAEVKKPGASVRISCKTSGFTFTSYFIHWVRQAPGQRPEWMGVINPSRGNADYAPRFRGRVTMTRDKSTHTVYMDLKSLRSDDAAIYYCARDRLGGLLDYYDSSDSSKNFDAFDFWGQGTLVTVSS
VL: NFMLTQPHSVSESPGKTVTISCTRSSGSIGSSYVQWYQQRPGTSPVTIIYEDSQRPSGVPDRFSGSIDNSANSASLTISGLKTEDEADYYCQSYDANNRVFGGGTKLTVL
notes: phage scFv
On to B18, for which the binding result in assay [1] and in assay [2] was “binds” each time.

B19: hN1S3-190 (scFv, V domains shown)
VH: QVQLVQSGAEVKKPGASVRISCKTSGFTFTSYFIHWVRQAPGQRPEWMGVINPSRGNADYAPRFRGRVTMTRDKSTHTVYMDLKSLRSDDAAIYYCARDRLGGLLDYYDSSDSSKNFDAFDFWGQGTLVTVSS
VL: SSELTQDPAVSVALGQTVRITCQGDSLRSNYPSWYQQKPGQAPLLVIYSENRRPSGIPDRFSASRSGNTASLTITGAQAEDEADYYCHSRGSSGNHKVFGGGTQLTVL
notes: phage scFv
On to B19, for which the binding result in assay [1] and in assay [2] was “binds” each time.

B20: N1wc21 (scFv, V domains shown)
VH: QVQLVESGAEVKKPGASVKVSCKASGYTFTDHYIQWLRQAPGQGLEWMGWMNPKSGGTNYAQKFQGRVTLTRDTSISTAYMDLSGLRFDDTAIYFCASDPTIPPSPNYDYYYYAMDLWGKGTLVTVSS
VL: SYELTQPPSVSVSPGQTARITCSGDALPDKYVHWYQQKSGQAPVLVLFDDSKRPSGIPERFSGSSSGTVATLIISGAQVEDEGDFFCYSTDSSGNERVFGGGTKLTVL
notes: phage scFv
Regarding B20, the binding result in assay [1] and in assay [2] was “binds” each time.
